The values below come from the DeepSol protein solubility set.

The nature of this data set: soluble on expression in E. coli; label from the status in PepcDB or PDB records.
For “AAIAEKDLGNAAYKQKDFEKAHVHYDKAIELDPSNITFYNNKAAVYFEEKKFAECVQFCEKAVEVGRETRADYKLIAKAMSRAGNAFQKQNDLSLAVQWFHRSLSEFRDPELVKKVKELEKQLKAAERLAYINPELAQEEKNKGNEYFKKGDYPTAMRHYNEAVKRDPENAILYSNRAACLTKLMEFQRALDDCDTCIRLDSKFIKGYIRKAACLVAMREWSKAQRAYEDALQVDPSNEEAREGVRNCLRSNDEDPEKAKERSLADPEVQEILRDPGMRMILEQMSNDPGAVREHLKNPEIFQKLMKLRD”, the “soluble on expression in E. coli” value is “not soluble”.

With “AAVEDNHLLIKAVQNEDVDLVQQLLEGGANVNFQEEEGGWTPLHNAVQMSREDIVELLLRHGADPVLRKKNGATPFLLAAIAGSVKLLKLFLSKGADVNECDFYGFTAFMEAAVYGKVKALKFLYKRGANVNLRRKTKEDQERLRKGGATALMDAAEKGHVEVLKILLDEMGADVNACDNMGRNALIHALLSSDDSDVEAITHLLLDHGADVNVRGERGKTPLILAVEKKHLGLVQRLLEQEHIEINDTDSDGKTALLLAVELKLKKIAELLCKRGASTDCGDLV”, the “soluble on expression in E. coli” value was “soluble”. For “ADVILFPSKNGAVTFTHKRHSEFVRECRSCHEKTPGKIRNFGKDYAHKTCKGCHEVRGAGPTKCKLCHTG” the value was “soluble”; for “AEAKSKLTVALGKDIAGTPVVGDLAKMPHLLVAGMTGSGKSVGVNGMIMSMLFKATPDEVRFIMIDPKMLELSIYDGIPHLLCPVVTDMREAGQALNWCVAEMEKRYRLLSHAGVRNLEGFNQKVEAAKAAGKPLLNPFSLNPDEPEPLEKLPLIVVVIDELADLMMTERKAVEQQIARLAQKARAAGIHMIVATQRP”, “not soluble”; for “AEPESCGTVRFSDVGWTDITATTATATTILEALGYETDVKVLSVPVTYTSLKNKDIDVFLGNWMPTMEADIAPYREDKSVETVRENLAGAKYTLATNAKGAELGIKDFKDIAAHKDELDGKIYGIEPGNDGNRLIIDMVEKGTFDLKGFEVVESSEQGMLAQVARAEKSGDPIVFLGWEPHPMNANFKLTYLSGGDDVFGPNYGGATVHTNVRAGYTTECPNVDKLLQNLSFSLQMENEIMGKILNDGEDPEKAAAAWLKDNPQSIEPWLSGVATKDGGDGLAAVKAALGLEHHHHHH”, “soluble”. For “AEQDMYLLRQSFGKHKTVSAGVPWFSTLFGRDSLITASQTLMLNSQIAKETLILLAKYQGKIDDEWREEEPGKILHELRLGEMARCQEIPHTPYYGTVDATPLWLMLYAEHYAWTHDQELLELLWPNALAAMDWIDRNTKQTSYLSYFRKSKRGLANQGWKDSGDCIVNHKGELANGPIALCEVQAYVYAAKTRLAEIARMKKRLDLADRWLEEARSLKVRFNRDFWVEDQDFCALALDGDGKPVDSITSNPGHCLHLGLFTHERAYSVAERLRAPDMFNGWGIRTLSSLSPAYNPMGYHIGSVWPHDNALIAMGLRSLGLIDQALELFQGLFDMTSQQPYERPPELFCGYERNGDNAPVQYPVACTPQAWATGSIFQ” the value was “not soluble”; for “AERPTLPIPDLLTTDARNRIQLTIGAGQSTFGGKTATTWGYNGNLLGPAVKLQRGKAVTVDIYNQLTEETTLHWHGLEVPGEVDGGPQGIIPPGGKRSVTLNVDQPAATCWFHPHQHGKTGRQVAMGLAGLVVIEDDEILKLMLPKQWGIDDVPVIVQDKKFSADGQIDYQLDVMTAAVGWFGDTLLTNGAIYPQHAAPRGWLRLRLLNGCNARSLNFATSDNRPLYVIASDGGLLPEPVKVSELPVLMGERFEVLVEVNDNKPFDLVTLPVSQMGMAIAPFDKPHPVMRIQPIAISASGALPDTLSSLPALPSLEGLTVRKLQLSMDGGANKINGQAFDMNKPMFAAAKGQYERWVISGVGDMMLHPFHIHGTQFRILSENGKPPAAHRAGWKDTVKVEGNVSEVLVKFNHDAPKEHAYMAHCHLLEHEDTGMMLGFTVGHHHHH”, “soluble”; for “AEVLLGSSDGGLAFVPSDLSIASGEKITFKNNAGFPHNDLFDKKEVPAGVDVTKISMPEEDLLNAPGEEYSVTLTEKGTYKFYCAPHAGAGMVGKVTVN”, “soluble”. For “AFVKMVGHHVAFLEADVLQAERDHGAFPQALRRWLGSAGLPSFRNVSGVQWHNPSSLQPPPPGFK” the value was “not soluble”. For “AGIVNQVTAKNITADLQGGYPWSESNPLLLSDVSVDVLGGQIIMKQLRMPQHDPALLRVQNISSSELISAINPKQFAMSGPVSGALPLWLNNEKWIIKDGWLTNPGPMTLRIDKDTADAVVKDNVTAGSAINWLRYMEITHSWTKINVDNLGVLTMQAAITGKSRVDGKTAIVNLNYTHEENVFTLWRSLRFGDNLQAWLEQNTALPQPP”, the “soluble on expression in E. coli” value is “not soluble”. For “AGKPVLHYFNARGRMECIRWLLAAAGVEFEEKFIQSPEDLEKLKKDGNLMFDQVPMVEIDGMKLAQTRAILNYIATKYDLYGKDMKERALIDMYSEGILDLTEMIGQLVLCPPDQREAKTALAKDRTKNRYLPAFEKVLKSHGQDYLVGNRLTRVDIHLLEVLLYVEEFDASLLTPFPLLKAFKSRISSLPNVKKFLQPGSQRKPPMDAKQIQEARKAFKIQ” the value was “soluble”. For “AGMSLTQVSGPVYVVEDNYYVQENSMVYFGAKGVTVVGATWTPDTARELHKLIKRVSRKPVLEVINTNYHTDRAGGNAYWKSIGAKVVSTRQTRDLMKSDWAEIVAFTRKGLPEYPDLPLVLPNVVHDGDFTLQEGKVRAFYAGPAHTPDGIFVYFPDEQVLYGGCILKEKLGNLSFADVKAYPQTLERLKAMKLPIKTVIGGHDSPLHGPELIDHYEALIKAAPQSS” the value was “soluble”; for “AGQKVMITKMITDSVANPQMKQAFEQRLAKASTEDALNDIKRDIIRSAI”, “soluble”. For “AHHHHHHGSAGIEVQILEKKEDSIKFVLKGVHVSFANALRRTILGEVPTFAVDEVEFYENDSALFDEIIAHRLAMIPLTTPVDRFELDALELDDYTVTLSLEAEGPGIVYSGDLKSDDPDVKPVNPNIPIVKLAEGQRLVFNAYAKLGRGKDHAKWQPGFVYYKYYTIVHISKSIPEWKELKKLAKKRGLPVEETEEEVLVTTIKPFYIPKDFEEYEGKEIWEEIVPNTYIFTVETNGELPVEEIVSIALKILMRKADRFISELQKLTS” the value was “soluble”; for “AHHHHHHGSAQLAGQPILILPEGTQRYVGRDAQRMNILAARIVAETIRTTLGPKGMDKMLVDSLGDIVITNDGATILDEMDIQHPAAKMMVEVAKTQDKEAGDGTTTAVVIAGELLRKAEELLDQNIHPSIIIKGYTLAAQKAQEILENIAKEVKPDDEEILLKAAMTSITGKAAEEEREYLAKLAVEAVKLVAEKEDGKYKVDIDNIKLEKKEGGSVRDTQLIRGVVIDKEVVHPGMPKRVEKAKIALINDALEVKETETDAEIRITSPEQLQAFLEQEERMLREMVEKIKEVGANVVFVQKGIDDLAQHYLAKYGIMAVRRVKKSDMEKLAKATGAKIVTNIRDLTPEDLGYAELVEERKVAGESMIFVEGCQNPKAVTILIRGGTEHVVDEVERALEDAIKVVKDILEDGKILAGGGAPEIELAIRLDEYAKEVGGKEQLAIEAFAEALKVIPRTLAENAGLDPIETLVKVIAAHKEKGPTIGVDVYEGEPADMLERGVIEPLRVKKQAIKSASEAAIMILRIDDVIAASKLEKEKEKEGEKGGGSEDFSSDLD”, “not soluble”. For the sequence “AHHHHHHGSEEKIILFVCVKNSARSQMAEAFFNYYNDDPRFKAMSAGTEPADDIDPLAKKVMEEIGISLEGQKPKLYTPEMADKAYIVITMGCLDKCPYAPPEKTWDWGLEDPYGKPIEKYREVRDEIKRRVLKLIEDLKAGKSREEIIGRKSLFAI”, the “soluble on expression in E. coli” value was “soluble”. Turning to “AHHHHHHGSEIDKGLAKFGDSLINFLYSLALTEFLGKPTGDRVPNASLAIALELTGLSKNLRRVDKHAKGDYAEALIAKAWLMGLISEREAVEIIKKNLYPEVLDFSKKKEAIGRALAPLLVIISERLYSSQV”, the “soluble on expression in E. coli” value is on record as “soluble”. For “AHHHHHHGSEIYEGKAKKMIPLDEDKFIMEFKDDATAFDGVKKAKFVGKGWLNAQISAKLFKLLEDHGIKTHFIGVAGGNRLIVERLEMYPIEVVVRNVVAGSLKKRLPLPEGYELPEPIVELYYKSDELHDPMINYYHARILGISEEEIKEMERIALKVNEILKKFFREKGIILVDFKLEFGKNKKGEIVLADEISPDTCRFWDVETKKSLDKDVFRFDKGDLIEAYKELYKRLIGEEPQI” the value was “not soluble”.
